Measured values reported in IntAct's records for PubMed 21816274.

B1: Gem-associated protein 2 (Homo sapiens), O14893 (parent)
chain: MRRAELAGLKTMAWVPAESAVEELMPRLLPVEPCDLTEGFDPSVPPRTPQEYLRRVQIEAAQCPDVVVAQIDPKKLKRKQSVNISLSGCQPAPEGYSPTLQWQQQQVAQFSTVRQNVNKHRSHWKSQQLDSNVTMPKSEDEEGWKKFCLGEKLCADGAVGPATNESPGIDYVQIGFPPLLSIVSRMNQATVTSVLEYLSNWFGERDFTPELGRWLYALLACLEKPLLPEAHSLIRQLARRCSEVRLLVDSKDDERVPALNLLICLVSRYFDQRDLADEPS

Variants of: B1
Conditions: with smn_human SMN1, Q16637
Chain of smn_human SMN1, Q16637 (Q16637 whole entry): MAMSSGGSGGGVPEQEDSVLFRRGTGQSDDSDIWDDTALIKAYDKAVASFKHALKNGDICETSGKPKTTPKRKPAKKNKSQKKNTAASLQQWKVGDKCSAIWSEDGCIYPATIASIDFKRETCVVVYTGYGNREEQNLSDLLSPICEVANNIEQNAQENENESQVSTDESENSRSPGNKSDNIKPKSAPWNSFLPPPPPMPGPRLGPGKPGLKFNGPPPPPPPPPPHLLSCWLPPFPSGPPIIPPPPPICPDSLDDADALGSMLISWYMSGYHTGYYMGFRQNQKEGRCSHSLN

Row | effect of a mutation on the interaction | Variant
1 | disrupting interaction | MRRAELAGLKTMAWVPAESAVEELMPRLLPVEPCDLTEGFDPSVPPRTPQEYLRRVQIEAAQCPDVVVAQIDPKKLKRKQSVNISLSGCQPAPEGYSPTLQWQQQQVAQFSTVRQNVNKHRSHWKSQQLDSNVTMPKSEDEEGWKKFCLGEKLCADGAVGPATNESPGIDYVQIGFPPLLSIVSRMNQATVTSVLEYLSNWFGERDFTPELGDWLYALLACLEKPLLPEAHSLIRQLARRCSEVRLLVDSKDDERVPALNLLICLVSRYFDQRDLADEPS [R213D]
